From the supplement of paper PMC10567573 come the findings set out here.

To fix the notation:
B1: SAT2 (parent)
chain: LTEAEGWHFFCFQGEATRKLAGK
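Note: lentivirally expressed fusions sorted by FACS into six bins by GFP to DsRed ratio, PSI derived from sequencing read proportions per bin multiplied by bin number.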

The variants in the data set derive from B1. Nature of the data set: protein stability index of a GFP-peptide fusion (GPS, HEK-293T) (PSI 1-6); higher = more stable. The conditions noted are these: c terminus: native.
With LTEAWGWHFFCFQGEATRKLAGK, the protein stability index was determined as 2.44.
To LTEAQGWHFFCFQGEATRKLAGK belongs 2.16; to LTEAAGWHFFCFQGEATRKLAGK, 2.17.
Under LTEACGWHFFCFQGEATRKLAGK stands 1.26.
Consider LTEAYGWHFFCFQGEATRKLAGK, for which the protein stability index turned out to be 1.97.
As for LTEALGWHFFCFQGEATRKLAGK, the protein stability index amounted to 1.29.
To LTEATGWHFFCFQGEATRKLAGK belongs 1.94; to LTEAVGWHFFCFQGEATRKLAGK, 1.36.
Turning to LTEASGWHFFCFQGEATRKLAGK, the protein stability index turned out to be 2.17.
In the case of LTEAMGWHFFCFQGEATRKLAGK, the protein stability index amounted to 4.97.
Under LTEAIGWHFFCFQGEATRKLAGK stands 3.25.
In the case of LTEAPGWHFFCFQGEATRKLAGK, the protein stability index amounted to 1.86.
Under LTEAHGWHFFCFQGEATRKLAGK stands 1.85; under LTEAFGWHFFCFQGEATRKLAGK, 1.79; under LTEANGWHFFCFQGEATRKLAGK, 1.73.
To LTEAEGWHFFCEQGEATRKLAGK belongs 3.33; to LTEAEGWHFFCAQGEATRKLAGK, 3.56.
Regarding LTEAEGWHFFCWQGEATRKLAGK, the protein stability index stood at 2.35.
Turning to LTEAEGWHFFCDQGEATRKLAGK, the protein stability index turned out to be 4.53.
As for LTEAEGWHFFCMQGEATRKLAGK, the protein stability index was determined as 2.5.
In the case of LTEAEGWHFFCRQGEATRKLAGK, the protein stability index was determined as 2.87.
On to LTEAEGWHFFCYQGEATRKLAGK, for which the protein stability index worked out at 2.48.
For the variant LTEAEGWHFFCCQGEATRKLAGK, the protein stability index was 3.39.
As to LTEAEGWHFFCSQGEATRKLAGK, the protein stability index was determined as 3.73.
To LTEAEGWHFFCKQGEATRKLAGK belongs 4.01; to LTEAEGWHFFCHQGEATRKLAGK, 3.95.
To LTEAEGWHFFCNQGEATRKLAGK belongs 3.84.
To LTEAEGWHFFCPQGEATRKLAGK belongs 3.85; to LTEAEGWHFFCGQGEATRKLAGK, 3.42.
On to LTEAEGWHFFCIQGEATRKLAGK, for which the protein stability index worked out at 2.55.
Under LTEAEGWHFFCQQGEATRKLAGK stands 4.04.
To LTEAEGWHFFCLQGEATRKLAGK belongs 2.48.
To LTEAEGWHFFCTQGEATRKLAGK belongs 3.88.
Regarding LTEAEGTHFFCFQGEATRKLAGK, the protein stability index came to 4.08.
On to LTEAEGSHFFCFQGEATRKLAGK, for which the protein stability index was 4.22.
For the variant LTEAEGRHFFCFQGEATRKLAGK, the protein stability index was 3.72.
Under LTEAEGQHFFCFQGEATRKLAGK stands 4.29; under LTEAEGYHFFCFQGEATRKLAGK, 2.58; under LTEAEGFHFFCFQGEATRKLAGK, 2.22.
To LTEAEGIHFFCFQGEATRKLAGK belongs 2.63.
Consider LTEAEGPHFFCFQGEATRKLAGK, for which the protein stability index is 4.43.
With LTEAEGHHFFCFQGEATRKLAGK, the protein stability index was found to be 3.96.
Under LTEAEGVHFFCFQGEATRKLAGK stands 3.42.
Under LTEAEGCHFFCFQGEATRKLAGK stands 3.87; under LTEAEGNHFFCFQGEATRKLAGK, 4.35.
For LTEAEGEHFFCFQGEATRKLAGK, the protein stability index came to 4.9.
Take LTEAEGMHFFCFQGEATRKLAGK: the protein stability index is 3.5.
Turning to LTEAEGKHFFCFQGEATRKLAGK, the protein stability index was 3.88.
Take LTEAEGDHFFCFQGEATRKLAGK: the protein stability index worked out at 4.63.
Under LTEAEGGHFFCFQGEATRKLAGK stands 3.63.
Take LTEAEGLHFFCFQGEATRKLAGK: the protein stability index worked out at 3.12.
In the case of LTEAEGWHFFCFNGEATRKLAGK, the protein stability index amounted to 2.72.
To LTEAEGWHFFCFDGEATRKLAGK belongs 3.14; to LTEAEGWHFFCFHGEATRKLAGK, 1.56; to LTEAEGWHFFCFCGEATRKLAGK, 1.48.
For the variant LTEAEGWHFFCFTGEATRKLAGK, the protein stability index was determined as 1.35.
On to LTEAEGWHFFCFGGEATRKLAGK, for which the protein stability index stood at 1.61.
To LTEAEGWHFFCFPGEATRKLAGK belongs 2.94.
To LTEAEGWHFFCFKGEATRKLAGK belongs 2.63; to LTEAEGWHFFCFEGEATRKLAGK, 2.89.
Regarding LTEAEGWHFFCFMGEATRKLAGK, the protein stability index stood at 1.07.
Take LTEAEGWHFFCFVGEATRKLAGK: the protein stability index was 1.9.
As for LTEAEGWHFFCFRGEATRKLAGK, the protein stability index was found to be 1.93.
Regarding LTEAEGWHFFCFYGEATRKLAGK, the protein stability index amounted to 2.66.
For LTEAEGWHFFCFAGEATRKLAGK, the protein stability index is 2.14.
To LTEAEGWHFFCFLGEATRKLAGK belongs 1.67; to LTEAEGWPFFCFQGEATRKLAGK, 2.97.
To LTEAEGWEFFCFQGEATRKLAGK belongs 3.41; to LTEAEGWCFFCFQGEATRKLAGK, 1.78.
For LTEAEGWFFFCFQGEATRKLAGK, the protein stability index was 1.9.
As to LTEAEGWDFFCFQGEATRKLAGK, the protein stability index is 3.44.
For the variant LTEAEGWIFFCFQGEATRKLAGK, the protein stability index turned out to be 2.19.
To LTEAEGWGFFCFQGEATRKLAGK belongs 3.25.
Regarding LTEAEGWKFFCFQGEATRKLAGK, the protein stability index was determined as 3.24.
Under LTEAEGWQFFCFQGEATRKLAGK stands 2.15; under LTEAEGWTFFCFQGEATRKLAGK, 3.27.
As to LTEAEGWNFFCFQGEATRKLAGK, the protein stability index is 3.91.
To LTEAEGWAFFCFQGEATRKLAGK belongs 2.21.
LTEAEGWVFFCFQGEATRKLAGK: the protein stability index is 1.91.
In the case of LTEAEGWRFFCFQGEATRKLAGK, the protein stability index amounted to 1.54.
With LTEAEGWHFFCFQVEATRKLAGK, the protein stability index was 2.33.
To LTEAEGWHFFCFQHEATRKLAGK belongs 1.9.
Regarding LTEAEGWHFFCFQSEATRKLAGK, the protein stability index was 1.73.
Turning to LTEAEGWHFFCFQYEATRKLAGK, the protein stability index amounted to 3.67.
Under LTEAEGWHFFCFQCEATRKLAGK stands 1.19; under LTEAEGWHFFCFQMEATRKLAGK, 1.76; under LTEAEGWHFFCFQIEATRKLAGK, 4.25.
For the variant LTEAEGWHFFCFQNEATRKLAGK, the protein stability index is 2.76.
To LTEAEGWHFFCFQTEATRKLAGK belongs 2.1; to LTEAEGWHFFCFQPEATRKLAGK, 1.83; to LTEAEGWHFFCFQLEATRKLAGK, 1.73.
Take LTEAEGWHFFCFQQEATRKLAGK: the protein stability index was determined as 1.96.
For the variant LTEAEGWHFFCFQKEATRKLAGK, the protein stability index came to 2.23.
To LTEAEGWHFFCFQWEATRKLAGK belongs 2.8; to LTEAEGWHFFCFQAEATRKLAGK, 2.48; to LTEAEGWHFFCFQEEATRKLAGK, 2.83.
To LTEAEGWHFFCFQDEATRKLAGK belongs 3.17.
